Reference: publication PMC9633789 (Nature Communications, 2022)

Molecular target: the molecule itself
Assay: SEC; Superose 6 Increase 10/300 GL; 25 mM HEPES-KOH pH 8.0, 100 mM NaCl, 5 mM MgCl2, 1 mM DTT, 10% sucrose; step of the purification of His-p97

B1: His-p97 (recombinant Xenopus p97) (enzyme, UniProt P23787 1-805, looked up)
chain: MASGSDTKSDDLSTAILKQKSRPNRLIVDESINEDNSMVSLSQAKMDELQLFRGDTVLLKGKKRREAVCIVLSDDTCSDEKIRMNRVVRNNLRVRLGDVISIQPCPDVKYGKRVHVLPIDDTVEGITGNLFEVYLKPYFLEAYRPIRKGDIFLVRGGMRAVEFKVVETDPSPYCIVAPDTVIHCEGEPIKREDEEESLNEVGYDDIGGCRKQLAQIKEMVELPLRHPALFKAIGVKPPRGILLYGPPGTGKTLIARAVANETGAFFFLINGPEIMSKLAGESESNLRKAFEEAEKNAPAIIFIDELDAIAPKREKTHGEVERRIVSQLLTLMDGLKQRAHVIVMAATNRPNSIDPALRRFGRFDREVDIGIPDSTGRLEILQIHTKNMKLSDDVDLEQVANETHGHVGADLAALCSEAALQAIRKKMDLIDLEDETIDAEVMNSLAVTMDDFRWALSQSNPSALRETVVEVPQVTWEDIGGLEDVKRELQELVQYPVEHPDKFLKFGMTPSKGVLFYGPPGCGKTLLAKAIANECQANFISIKGPELLTMWFGESEANVREIFDKARQAAPCVLFFDELDSIAKARGGNIGDGGGAADRVINQILTEMDGMSIKKNVFIIGATNRPDIIDPAILRPGRLDQLIYIPLPDEKSRMAILKANLRKSPVAKDVDVDFLAKMTNGFSGADLTEICQRACKLAIRESIENEIRRERDRQTNPSAMEVEEDDPVPEIRRDHFEEAMRFARRSVSDNDIRKYEMFAQTLQQSRGFGSFRFPAGGQSGAGPSPGAGGGSGGGHFTEEDDDLYG
notes: p97, Xenopus; source: E. coli Rosetta 2 (DE3), purified (HisTrap HP, Superose 6 Increase)
Question: B1 was tested. Which “stoichiometry N” value did it give?
Answer: The value was 6.
